Results taken from paper PMC11737055.

Molecular target: TDP-43 (UniProt Q921F2)
Assay: anti-GFP co-IP, anti-RFP Western blot
Conditions: reference: GFP-FMRP wild type; sites S499

binding against the reference: weaker
Substance: FMRP (from UniProt P35922) GFP-FMRP S499A
